Measured values reported in PMC9901739.

Target: acetylesterase LgEstI from Lactococcus garvieae (Lactococcus garvieae)
Experiment: SEC; Superdex 200 10/300 GL; 20 mM Tris-HCl pH 8.0, 200 mM NaCl, 1 mM TCEP, 5% glycerol; standard curve from a protein standard mix of 15-600 kDa

stoichiometry N: 2
Substance: acetylesterase LgEstI from Lactococcus garvieae (enzyme)
